Publication PMC10457330, “Structural basis for the allosteric modulation of rhodopsin by nanobody binding to its extracellular domain” (Nature Communications, 2023)
Blank lines part the entries; values can stand above or below the binder they belong to.

Experiments:
[1] = target: ground-state bovine rhodopsin (native, from rod outer segments) (bovine, UniProt P02699, 11-cis-retinylidene chromophore (Schiff base at Lys296); N-linked glycans at Asn2 and Asn15)
[2] = target: photoactivated bovine rhodopsin (Bos taurus (native, rod outer segments), UniProt P02699, all-trans-retinylidene chromophore after photoisomerization; N-linked glycans at Asn2 and Asn15)
photoactivated bovine rhodopsin, sequence (P02699 whole entry): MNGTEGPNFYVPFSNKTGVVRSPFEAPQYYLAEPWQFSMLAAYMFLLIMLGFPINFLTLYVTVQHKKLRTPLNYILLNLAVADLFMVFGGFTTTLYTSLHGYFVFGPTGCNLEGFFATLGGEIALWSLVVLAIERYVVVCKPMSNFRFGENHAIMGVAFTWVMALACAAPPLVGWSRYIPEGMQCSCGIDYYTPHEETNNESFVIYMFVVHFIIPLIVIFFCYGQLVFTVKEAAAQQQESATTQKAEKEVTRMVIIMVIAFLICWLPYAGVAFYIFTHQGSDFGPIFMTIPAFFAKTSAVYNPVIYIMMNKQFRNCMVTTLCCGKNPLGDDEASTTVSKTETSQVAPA

ground-state bovine rhodopsin (native, from rod outer segments), sequence (P02699 whole entry): as above

binding result [1]: binds
binding result [2]: binds
B1: Nb22 (VHH)
VHH: QVQLVESGGGLVQAGGSLRLSCTASGNSFTFYTMGWYRQAPGKQRELVASITHRDSTNYADSMKDRFTISRDNSKNTVYLQMNSLKAEDTAVYYCNLHGRTRLLGREYDYWGQGTQVTVSS

binding result [1]: binds
binding result [2]: binds
B2: Nb12 (VHH)
VHH: QVQLVESGGGLVQPGGSLRLSCAASGFTFNRYVMNWVRQAPGKGLEWVSGISRDGSYTDYADSVKGRFTISRDNAKDTLYLQMNSLKPEDTAVYYCSKYNSVVTTPPGQGTQVTVSS
